Laboratory results as given in patent US20160159879A1 (UNIVERSITY OF NORTH CAROLINA AT CHAPEL HILL, published 2016).
Ends that are not written are not given here. * marks the point of attachment. Biotin = O=C1N[C@H]2[C@H](CS[C@H]2CCCCC(=O)*)N1

Assays:
[1] = target: yfp-tagged αENaC stably expressed in JME nasal epithelial cells; experiment: fluorescence binding isotherm on polarized JME cells expressing yfp-αENaC, 30 min, empty-vector cells as non-specific binding, Hill fit
[2] = system: T1, Recombinant V5/6His-tagged SPLUNC1 purified from HEK293 media
T1 sequence: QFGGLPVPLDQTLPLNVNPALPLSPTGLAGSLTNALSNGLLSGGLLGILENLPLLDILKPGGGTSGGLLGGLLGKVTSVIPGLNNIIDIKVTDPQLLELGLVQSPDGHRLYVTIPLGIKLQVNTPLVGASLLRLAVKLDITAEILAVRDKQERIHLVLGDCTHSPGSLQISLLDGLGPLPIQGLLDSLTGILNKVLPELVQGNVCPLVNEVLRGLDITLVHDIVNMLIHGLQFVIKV

[3] = target: αβγENaC expressed in Xenopus laevis oocytes (rat) (UniProt P37089); experiment: cell-based or functional assay
[4] = target: ENaC endogenous to primary human bronchial epithelial cultures (human) (UniProt P37088); experiment: cell-based or functional assay
[5] = target: αβγENaC expressed in Xenopus laevis oocytes (rat, UniProt P37089 1-698; P37090 1-638; P37091 1-650); experiment: cell-based or functional assay
[6] = target: T2, Human αENaC subunit, HA (N-terminus) and V5 (C-terminus) tagged, expressed alone in HEK293T cells (human, UniProt P37088 1-669); experiment: pull-down with biotinylated S18 of subunits expressed individually in HEK cells, Western blot
T2 sequence (looked up): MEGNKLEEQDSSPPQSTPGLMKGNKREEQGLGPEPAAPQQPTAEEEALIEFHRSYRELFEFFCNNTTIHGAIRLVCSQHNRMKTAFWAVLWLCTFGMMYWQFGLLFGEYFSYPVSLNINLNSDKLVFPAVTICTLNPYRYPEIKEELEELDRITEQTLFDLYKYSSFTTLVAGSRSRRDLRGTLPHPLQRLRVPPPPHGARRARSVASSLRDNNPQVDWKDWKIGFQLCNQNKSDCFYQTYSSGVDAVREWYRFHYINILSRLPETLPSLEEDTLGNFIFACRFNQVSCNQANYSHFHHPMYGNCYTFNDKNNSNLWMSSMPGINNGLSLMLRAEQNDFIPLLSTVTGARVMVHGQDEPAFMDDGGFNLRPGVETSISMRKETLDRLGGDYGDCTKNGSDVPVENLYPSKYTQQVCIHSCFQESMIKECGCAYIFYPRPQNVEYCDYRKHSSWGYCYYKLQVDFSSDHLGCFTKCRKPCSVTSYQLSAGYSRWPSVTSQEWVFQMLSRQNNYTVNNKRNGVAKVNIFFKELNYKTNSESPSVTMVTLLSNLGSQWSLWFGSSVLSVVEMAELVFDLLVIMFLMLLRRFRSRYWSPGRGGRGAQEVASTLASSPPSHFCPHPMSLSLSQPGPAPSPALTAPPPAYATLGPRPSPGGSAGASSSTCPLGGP

[7] = target: T3, Human γENaC subunit, HA (N-terminus) and V5 (C-terminus) tagged, expressed alone in HEK293T cells (human, UniProt P51170 1-649); experiment: as above
T3 sequence (looked up): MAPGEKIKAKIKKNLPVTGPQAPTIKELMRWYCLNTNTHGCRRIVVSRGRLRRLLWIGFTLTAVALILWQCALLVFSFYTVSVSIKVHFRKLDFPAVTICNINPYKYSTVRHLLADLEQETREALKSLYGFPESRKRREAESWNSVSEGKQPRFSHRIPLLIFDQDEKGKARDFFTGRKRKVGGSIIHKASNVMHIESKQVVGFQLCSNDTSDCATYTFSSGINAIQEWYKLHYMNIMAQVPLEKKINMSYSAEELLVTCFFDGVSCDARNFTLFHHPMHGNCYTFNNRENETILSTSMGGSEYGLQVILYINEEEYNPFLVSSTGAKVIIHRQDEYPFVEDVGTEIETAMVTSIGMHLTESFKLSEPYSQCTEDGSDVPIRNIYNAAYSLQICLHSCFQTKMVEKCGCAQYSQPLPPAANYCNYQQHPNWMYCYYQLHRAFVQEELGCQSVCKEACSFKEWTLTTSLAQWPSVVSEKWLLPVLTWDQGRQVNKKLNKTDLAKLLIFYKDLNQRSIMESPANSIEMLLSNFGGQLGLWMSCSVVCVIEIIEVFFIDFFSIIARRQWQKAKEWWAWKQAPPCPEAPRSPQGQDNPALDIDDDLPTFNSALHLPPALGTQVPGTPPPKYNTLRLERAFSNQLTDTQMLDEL

[8] = target: ENaC endogenous to primary human bronchial epithelial cultures (human, UniProt P37088 1-669; P51168 1-640; P51170 1-649); experiment: cell-based or functional assay
[9] = target: T4, Human βENaC subunit, HA (N-terminus) and V5 (C-terminus) tagged, expressed in HEK293T cells (human, UniProt P51168 1-640, glycosylated (EndoH and tunicamycin experiments)); experiment: peptide pull-down on neutravidin beads, Western blot with anti-V5
T4 sequence (looked up): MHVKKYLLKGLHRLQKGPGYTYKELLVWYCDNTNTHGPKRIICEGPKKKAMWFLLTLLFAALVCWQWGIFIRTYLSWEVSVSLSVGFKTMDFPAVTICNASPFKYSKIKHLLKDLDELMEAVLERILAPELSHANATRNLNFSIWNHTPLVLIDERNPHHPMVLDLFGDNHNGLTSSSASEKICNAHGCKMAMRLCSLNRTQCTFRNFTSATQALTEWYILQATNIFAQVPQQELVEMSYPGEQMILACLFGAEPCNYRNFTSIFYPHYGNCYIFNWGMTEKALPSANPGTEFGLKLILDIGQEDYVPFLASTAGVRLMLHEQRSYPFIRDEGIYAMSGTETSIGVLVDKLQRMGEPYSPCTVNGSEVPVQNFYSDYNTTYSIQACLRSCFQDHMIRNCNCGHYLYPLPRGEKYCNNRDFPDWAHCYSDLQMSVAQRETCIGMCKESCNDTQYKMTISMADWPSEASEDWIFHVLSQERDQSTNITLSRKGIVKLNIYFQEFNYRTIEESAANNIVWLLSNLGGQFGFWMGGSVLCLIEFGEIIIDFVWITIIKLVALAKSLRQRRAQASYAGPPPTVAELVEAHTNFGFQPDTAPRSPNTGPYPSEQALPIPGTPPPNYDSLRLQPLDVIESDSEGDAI

αβγENaC expressed in Xenopus laevis oocytes (rat), sequence (P37089 whole entry, chain 1 of 3): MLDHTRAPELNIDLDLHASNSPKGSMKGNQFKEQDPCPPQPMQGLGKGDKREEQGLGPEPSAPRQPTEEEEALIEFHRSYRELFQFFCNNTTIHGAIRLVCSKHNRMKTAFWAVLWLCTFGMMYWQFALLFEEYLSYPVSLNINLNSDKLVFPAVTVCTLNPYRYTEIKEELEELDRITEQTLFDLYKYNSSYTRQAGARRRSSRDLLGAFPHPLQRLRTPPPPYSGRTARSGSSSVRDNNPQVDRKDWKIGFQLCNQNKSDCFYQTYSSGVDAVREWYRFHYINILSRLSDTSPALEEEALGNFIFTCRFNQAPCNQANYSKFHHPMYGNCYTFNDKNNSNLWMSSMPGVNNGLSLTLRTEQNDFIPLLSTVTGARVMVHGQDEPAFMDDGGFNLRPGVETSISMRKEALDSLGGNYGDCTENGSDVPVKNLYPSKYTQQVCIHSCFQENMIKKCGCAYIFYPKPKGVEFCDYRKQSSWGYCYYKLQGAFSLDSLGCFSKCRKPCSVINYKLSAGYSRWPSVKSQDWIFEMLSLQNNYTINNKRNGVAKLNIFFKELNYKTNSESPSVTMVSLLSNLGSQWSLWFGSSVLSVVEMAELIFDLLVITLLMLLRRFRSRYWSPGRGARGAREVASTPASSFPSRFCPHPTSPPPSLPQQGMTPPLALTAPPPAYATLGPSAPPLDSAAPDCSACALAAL
αβγENaC expressed in Xenopus laevis oocytes (rat), sequence (P37090 whole entry, chain 2 of 3, further chain): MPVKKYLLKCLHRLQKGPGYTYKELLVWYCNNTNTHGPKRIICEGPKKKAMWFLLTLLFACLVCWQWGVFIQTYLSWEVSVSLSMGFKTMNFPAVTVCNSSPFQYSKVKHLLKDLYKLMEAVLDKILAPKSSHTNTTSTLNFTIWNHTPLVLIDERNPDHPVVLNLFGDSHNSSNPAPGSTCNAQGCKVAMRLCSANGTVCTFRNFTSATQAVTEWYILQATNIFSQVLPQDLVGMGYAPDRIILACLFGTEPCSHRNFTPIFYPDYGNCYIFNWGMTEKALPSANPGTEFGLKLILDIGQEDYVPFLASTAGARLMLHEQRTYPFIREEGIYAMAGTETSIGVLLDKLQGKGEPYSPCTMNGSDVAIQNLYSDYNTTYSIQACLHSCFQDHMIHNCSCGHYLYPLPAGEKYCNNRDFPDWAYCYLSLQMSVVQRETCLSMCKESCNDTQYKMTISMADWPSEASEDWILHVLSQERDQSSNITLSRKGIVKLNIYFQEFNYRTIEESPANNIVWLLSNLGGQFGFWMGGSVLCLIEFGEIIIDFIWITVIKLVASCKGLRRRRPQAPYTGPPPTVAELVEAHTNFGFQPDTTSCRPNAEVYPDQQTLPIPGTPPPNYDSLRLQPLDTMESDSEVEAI
αβγENaC expressed in Xenopus laevis oocytes (rat), sequence (P37091 whole entry, chain 3 of 3, further chain): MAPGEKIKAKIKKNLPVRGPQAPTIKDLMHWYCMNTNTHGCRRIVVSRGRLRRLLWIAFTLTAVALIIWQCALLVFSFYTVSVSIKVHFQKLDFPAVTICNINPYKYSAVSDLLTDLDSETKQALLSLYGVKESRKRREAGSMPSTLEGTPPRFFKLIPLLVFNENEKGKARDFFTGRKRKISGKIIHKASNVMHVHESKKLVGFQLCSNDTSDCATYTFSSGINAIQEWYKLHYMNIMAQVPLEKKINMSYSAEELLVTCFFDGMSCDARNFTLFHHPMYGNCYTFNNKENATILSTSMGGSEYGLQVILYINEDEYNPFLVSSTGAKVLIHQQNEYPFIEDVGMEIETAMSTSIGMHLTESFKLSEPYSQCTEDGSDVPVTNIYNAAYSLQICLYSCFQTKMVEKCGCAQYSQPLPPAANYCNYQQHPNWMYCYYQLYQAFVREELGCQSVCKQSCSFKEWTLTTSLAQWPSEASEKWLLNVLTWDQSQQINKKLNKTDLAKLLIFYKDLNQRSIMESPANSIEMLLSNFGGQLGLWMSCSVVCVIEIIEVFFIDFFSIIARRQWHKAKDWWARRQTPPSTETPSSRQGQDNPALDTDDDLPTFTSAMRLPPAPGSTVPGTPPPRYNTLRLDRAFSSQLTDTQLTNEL
αβγENaC expressed in Xenopus laevis oocytes, sequence (P37089 whole entry, chain 1 of 3): as the sequence (P37089 whole entry, chain 1 of 3) above
αβγENaC expressed in Xenopus laevis oocytes, sequence (P37090 whole entry, chain 2 of 3): as the sequence (P37090 whole entry, chain 2 of 3, further chain) above
αβγENaC expressed in Xenopus laevis oocytes, sequence (P37091 whole entry, chain 3 of 3): as the sequence (P37091 whole entry, chain 3 of 3, further chain) above

Molecule: Texas red-labeled recombinant SPLUNC1 (from UniProt Q9NP55 20-256)
- Kd [1]: 0.055 µg/mL

Molecule: Trypsin
- cleavage of the fluorogenic substrate BGAR-MCA by 1.0 or 0.3 U/ml trypsin [2]: 50 ng/ml rSPLUNC1 had only a modest affect (˜10%) on the ability of either 1.0 or 0.3 U/ml trypsin to cleave a fluorogenic substrate

Molecule: Recombinant V5/6His-tagged SPLUNC1 purified from HEK293 media (from UniProt Q9NP55 20-256)
- decrease in ENaC currents (amiloride-sensitive), two electrode voltage clamp in oocytes [3]: 70%
- transepithelial electrical resistance [4]: 33%

B1: V5-tagged SPLUNC1 expressed in Xenopus oocytes from injected cRNA (other, not shown: small tags and cut ends)
chain: T1 sequence
- decrease in amiloride-sensitive current relative to control oocytes [5]: ~70%

B2: Biotinylated S18 peptide (peptide)
peptide: Biotin-GGLPVPLDQTLPLNVNPA
notes: also called G22-A39
- binding result [6]: no binding
- binding result [7]: no binding

B3: S18 peptide (amino acids 22-39 of human SPLUNC1) (peptide)
peptide: GGLPVPLDQTLPLNVNPA
- IC50, dose response of ASL height in CF HBECs 8 h post-S18 addition [8]: 0.6 µM

B4: Control peptide ABC (alphabetized G22-A39), biotinylated (peptide)
peptide: Biotin-ADGGLLLLNNPPPPQTVV
notes: also called ADG
- binding result [9]: no binding
